In the nanobody polyreactivity screen of Harvey et al. (2022):

Assay: yeast display, Sf9 membrane polyspecificity reagent, FACS + sequencing; frameworks hold sequencing errors
Procedure, shortened: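 Synthetic nanobody libraries on Saccharomyces cerevisiae BJ5465 were galactose-induced for 36–48 hours, stained 1 hour at 4 °C with 10% biotinylated, detergent-solubilized Sf9 membrane reagent and enriched on streptavidin microbeads. FACS then separated cells into low and high (top ~1%) gates by anti-HA (expression) and streptavidin (reagent binding) fluorescence. Genes were colony-PCR amplified, MiSeq 2 × 250 sequenced and CDR-length filtered. A clone's polyreactivity label is that of its gate of origin.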

Row | Sequence | polyreactivity (PSR sort gate)
1 | QVQLVESGGGLVQAGGSLRLSCAASGNTFEYYVMGWYRQAPGKERELVAAITWSTGSTYYADSVKGRFTISRDNAKNTVYLQMNSLKPEDTAVYYCNAAYVYYYPHYRYAPTAVDYDYWGQGTQVTVSS | low polyreactivity
2 | QVQLVESGGGLDQAGGSLRLSCAASGRIIYWYAMGWFRQAPGKERELVAAINNGGGTNYADSVKGRFTISRDNAKHTVYLQMNSLKPEDTAVYYCAADYVFYSRFFTEVYWGQGTQVTVSS | low polyreactivity
3 | QVQLVESGGGLVQAGGSLRLSCAASGFVWNAMGWYRPAPGTERELVAAINWRGGSTNYADSVKGRFTISRDNAKNTVYLQMNSLKPEDTAVYYCAAYFFHYHFYQAAYDYWGQGTQVTVSS | low polyreactivity
4 | QVQHVESGGCLVQAGGSLRLSCAASGSIFYRYAMGWYRQGPGKESQLVAAIRRGGSTNYADSVKGRFTISRDNAKYTVSLQMNSLKPEDTAVYYCAAGRFTYAAQSYEYWGQGTQVTVSS | high polyreactivity
5 | QDQLVDSGAGLLQAGGSLRLSCAASGFTFYGYAMGWYRQAPGKERELVASISWSGGTTYYADSVKGRFTISRDNAKNTVYLQMNSLKPEDTAVYYCNAVRYRYGVFPYYYWGQGTQVTESS | high polyreactivity
6 | QVQLVESGGGLVQAGGSLRLSCAASGSIFTYYDMGWYRQAPGKEREWVAGISRRGSTYYADSVKGRFTISRDNAKNTVYLQMNSLKPEDTAVYYCAADPWVGTLYPRVGYWGQGTQVTVSS | low polyreactivity
7 | QVQLVESGGGLVQAGGSLRLSCAASGFIFYDYAMGWYRQGPGKERELGAAISSTAFGTYYADSVKGRFTISRDKAKNTVYLQMNILKPEDTAVYYCAAAVSPHSEGFGEYNDWGQGTQVTVSS | low polyreactivity
8 | QVQLVESGGGLVQAGGSLRLSCAASGRTIYSYAMVLNTQAPGKERELVAAISRRGGSTYYADSVKGRFTISRDNAKNTVYLQLNSLIPEDTAVYYCAKRYTPLPYKGIWYYYWGQGTQVTVSS | high polyreactivity
9 | QVQLVESRGGLVQAGGSLRLSFAASGFTFGSYSMVWYRQAPGKERELVADITRRGDNTYYADSVKGRFTISRDNAKNTVYLQMNSLKPEDSAVYYCNAAKGGRYPDYDYWGQGTQVTVSS | high polyreactivity
10 | QVQLVESGGGLVQAGGSLRLSCAASGRIFKYYAMGWYRQAPGKERELVARISSRGGSTNYADSVKGRFTISRDNAKNTVYLQMNSLKPEDTAVYYCAAQYQNFPYGYWGQGTQVTVSS | high polyreactivity
11 | QGQLVESGGGLVQGGGSLRFSCAASGITFQRYALGGYRQAPGKDRALVAAIRRSGTSTYYADSVKGRFPITRHNAKNPVHLQMNSLKPEDTAVKYCAAGSYPTEGSKYGYWGQGTQVTGSS | high polyreactivity
12 | QVHLVESGGGLVQAGGSLRLSCAASGRNFLYYAMGWYRQAPGKERELVAASTSGDSTYYADSVKGRFTISRDNAKNTVYLQRNSLKPEDTAVYYCNAYQWGGRYWLVTYDYWGQGTLVTVSS | low polyreactivity
13 | QVQLVESGGGLVQAGGSLRLSCAASGSNFDVNAMGWYRQAPGKERELVAAISDSGGSTYYADSVKGRFTISRDNAKNTVYLQMNSLKPEDTAVYYCNADWSWYNYYDFDYWGQGTQVTVSS | low polyreactivity
14 | QVHLVDSGGGLVQAGGSLRLSCAASGRTFYYYAMGWYRQAHGKERELVATISRTGTTNYADSVKGRFTISRDNAKNTVYLQMNSLKPEDTAVYYCAAERATPWPKNDYWGQGTQVTVSS | high polyreactivity
15 | QVKLEESGGGLVQAGGSLRLSCAASGSTFPGNAMGSYRQAPGKERELVAAINWSGDSTYYADSVKGRFTNSRDKPKNTVYLQMNSLTPEDTAVYYCAAYGDGYYYWGQGTQVTVSS | low polyreactivity
16 | QVQLVESGGGLVQAGGSLRLSSADSGSIFVYYAMGWYRQEPGKESELVATIRSSGARTYYADSVKGRFTISRDNAKNTVYLQINSLKPEDTAVYYCNARYVPYWAYGYGYWGQGTQVTVSS | high polyreactivity
17 | QVQLVESGGGLVQAGGSLRLSCAASGSIFSRYAMGWYRQSPGKERELVAAISQRAGSTYYADSVKGRFTISRDNAKNTVYLQMNSLKPEDTAVYYCAARRRGRKERGEDYWGQGTQVTVSS | high polyreactivity
18 | QDQLVESGVGLVQAGGSHRLSSAASGSTFRRNTMGWYRQAPGKERELVAAISNGGRTYYADSVKGRFTISRDNAKNTVYLQMNRLKPEDTAVYYCNKVRSPWYDSWGQGTQVTVSS | high polyreactivity
19 | QLQLVESRGGLVQAGGSLRLSCASYGSIFIWYAMGWYRQATGKERELVAAITSSGSTNYADSVKGRFTISRDNAKNPVYLQMNSLKPEDTAVYYCAAEYTYYTYNLNYWGQGTQVTVSS | low polyreactivity
20 | QVQLVESGGGLVQAGGSLRLSCAASGRTFGKYAMGWYRQAPGKERELVARISRRGGTTYYADSVKGRFTISRDNAKNTVYLQMNSLKPEDTAVYYCAAGGTYGAVEEAHDSWGHGTQVTVSS | high polyreactivity
21 | QVQVVESGGGLVQAGGSLRLSCAASGRTFRKNAMGWYRQAPGKERELVAAISSGGGSTYYADSVKGRFTISRDNAKNSDYLQINSLKPEDTAVYYCAVLVWYYDGYYSSYDYWGQGTQVTVSS | high polyreactivity
22 | QVQLVESGGGLVQAGGSLRLSCAASGSTFLYYTMGWYRQAPGKERELVAAITGSGTSTYYADSVKGRFTISRDNAKNTVYLQMNSLKPEDTAVYYCAARGHGRLYYWGQGTQVTVSS | high polyreactivity

Row | Sequence | polyreactivity (PSR sort gate)
23 | QVQLVESGGGLVQAGGSLRLSCAASGSTFGWYAMGWYRQAPGKEREFVAAISWSGTSTYYADSVKGRFTISRDNAKNTVYLQMNSLKPEDTAVYYCNARSKRANRSLGLGYWGQGTQVTVSS | low polyreactivity
24 | QVQLVESGGGLVQEGGSLRLSCAAAGIIFIAYAMGWYREAPGKERELVADISIGGSTNYADSVKGRFTISRDNAKNTVYLQMTSQKPEDTAVYYCNAGGGFYGSTVEHDYWGQGTQVSVSS | low polyreactivity
25 | QVQLVESGGGLVQAGGSLRISCAASGRTFYYYAMGWYRQAPGKEREFVARITSSGGSTSYADSVKGRFTISRDNAKNTVYLQMNSLKPEDTAVYYFNAVSTYTSDDYDYWGQGSQVTVSS | high polyreactivity
26 | QVQLVESGGGLDQAGGSLRLICAASGLTFPYYARGWSIQAPGKEMEVVAGITDDGGDTYYADSVKGRLTISRDYAKNTVYLQMNSLKPEDTAVYFCAADGWFQGWFGYGYWGQGTQVTVSS | high polyreactivity
27 | QVQLVESGGGLVQAGGSLRLSCAASGFTFAFYAMGWYRQAPGKERELVAAISWDGVTTYYADSVKGRFTISRDNAKNTVYLQMNSLKPEDTAVYYCAADYPDYAGSFWPSGMYYWGQGTQVTVSS | low polyreactivity
28 | QVQLVESGGGSVQAGGSLRLSCAASGSIYYYAMGWYIQAPGKERELVAAISRSGGSTYYADSVKGRFTISRDNAKNTVYLQMNCLKPEDTAVYYCAKGYRGYSYGYCGQGTQVTVSS | high polyreactivity
29 | QVQLVESGGGLVQSGGSLRLSCAASGITTRTYAMGWYRQAPGKDRELVAAISDSGDRTYYADSVKGRFTISRDNAKNTVYLQMNSLKPEDTAVYYCAVDAPGPRGEYWGQGTKVTVSS | low polyreactivity
30 | QVQLVESGGGLVQAGGSLRLTCGASGRIFRGYAMGCSRQAPGKERELVASISGGDSTYADSVKGRYTISRDNAKNTVYLQINSLKPEDTSVYYWAASSWYPALREYWGQGTQVSVSS | low polyreactivity
31 | QVQLVESGGGLVQAGGSLRLSCAASGRTLYLYAMGWYRQAPGKERELVAAITYGGGSTYYADSVKGRFTISRDNAKNTVYLQMNSLKPEDTAVYYCNAPGDGYLYDHTYDYWGQGTQVTVSS | low polyreactivity
32 | QVQLVESGGGLVQAGGSLRLSCAASGRIFPWYTMGWYRQAPGKERELVAAITSGGNTDYADSVKGRFTISRDNAKNNVYLQMNSLKPEDTAVYYCAAGGYPGTTYYGYDYWGQGTQVTVSS | low polyreactivity
33 | QVQLVESGGGLVQAGGSLRLSCAASGFTSTINAMGWYRQAPGKERELVAAISVSSGSTYYADSVKGRFTISRDNAKNTVYLQMNSLKPEDTAVYYCATGISRDYIYIILRYDYWGQGTQVTVSS | low polyreactivity
34 | QVQLVESGGGLVQAGGSLRLSCAASGSTFPHNAMGWYRPAPGKERELVAAISVGGGSTHYADSVKGRFTISRDNAKNTVYLQMNSLKPEDTAVYYCAKDYAYQYSFVTYDYWGQGTQVTVSS | low polyreactivity
35 | QVQLVESGGGLVQAGGSLRLSCAASGSIFTFYAMGWYRQAPGKERELVATINRIGGNTYYADSVKGRFTISRDNAKNSVYLLMKSLKPEETAVYYCAVCPYTRPYYRTFDHWGQGTLVTVSS | low polyreactivity
36 | QVQLVESGVGLVQAGGSLRLSCAAYGRTFYYYAMGWYRQAPGKERELVAGITWSGGSTKYADSVKGRFTISRDNAKNTVYLQMNSLKPEDTAVYYCNARPPRWVRSMDYWGQGTQVTVSS | high polyreactivity
37 | QVQLVESGGGLVQAGGSLRLSCAASGFTFKFYAMGWYRPAPGKERELVAAISSGGASTYYADSVKGRFTISRDNAKNTVYLQMNSLKPEDTAVYYFAARSGGPSDGSGYWGQGTEVTVSS | low polyreactivity
38 | QVKLVESGGGLVQAGGSLRISCAASVSIFPVYAMGWYRQAPGKERELVAAISSRGGRTYYADSVKGLFTISRDNAKNTVYLQMNSLKPEDNAVYYFATDYSTYYRLPSQYDYWGQGTQVTVSS | low polyreactivity
39 | QVQLVESGGGLVQAGGSLRLICAASGRIFVGNTMGWYRQAPGKERELVAAITSSGGSTYYADSVKGRFTISRDNAKNTVYLQMNSLKPEDTAVYYCAARTREYQWRYYYWGQGTQVTVSS | high polyreactivity
40 | QVQLVESGGGLVQAGGSLRLSCAASGRTFASYGMGWYRQAPGKHRELVASITRRGGSTYYADSVKGRFTISRDNAKNTVYLQMNSLKPEDTAVYYCAATRVRSASYSIEYDYWGQGTQVTVSS | high polyreactivity
41 | QVQLVESGGGLVQAGGSLRLSCAASGFTFYSYVIGWYRQAPGKERELVAAITRGGSTYYADSVKGRFTISRDNAKNTVYLQMNSLKPEDTAVYYCAKRPSYGYNYWGQGTQVTVSS | low polyreactivity
42 | QVQLVESGGGLVQAGGSLRLSCAASGRTFNWNAMGWYRQAPGKESEFVADISGRGGSTYYADSVKGRFTISRDNAKNTVYLQMNSLKPEETAVYYCAARPRFLRASVEFDYWGQGTQVTVSS | high polyreactivity
43 | QVQLVESGGCLVQAGGSLRLSCAASGIIFQQYAMGWYRQAPGKARELVAAITYSGDGTYYADSVKGRFTISRDNAKNTVYLQMNSLKPEDTAVYDCAAYPRDPYKEYDYWGQGTQVTVSS | low polyreactivity
